Results as given in US7481993B2, “Chelators for radioactively labeled conjugates comprising a stabilizing sidechain” (Schering AG, priority 2005, dated 2009).
Where “and” joins values, the source holds several entries; their conditions need not be identical. Equal values may be shown once. * marks the point of attachment. Mercaptoacetyl = O=C(CS)*; Bz = O=C(c1ccccc1)*

Experiment: Cysteine challenge stability of ^99mTc chelator peptides
Format: physicochemical
Description: For the ^99mTc radiolabeling, a peptide as the TFA salt was dissolved in saline at 1 mg/mL and 100 μg (100 μL) was added to a ^99mTc placebo vial. The vial was reconstituted with 0.9 mL technetium ^99mTc sodium pertechnetate containing approximately 20 mCi and saline such that the final preparation volume was 1.1 mL. The vial was heated in a boiling water bath for 10 minutes and cooled at room temperature for 10 minutes.
The radiochemical purity (RCP) of the ^99mTc or ^188Re peptides was measured by gradient reversed phase HPLC using a Eurosphere-100 C18 HPLC column and 0.1% TFA mobile phases moderated with acetonitrile. Radioactive components were detected in the HPLC system using an in-line radiometric detector. Under the gradient conditions employed radiolabeled impurities (for example: ^99mTc glucoheptonate, ^99mTc edetate, and ^99mTc pertechnetate) eluted early (between 1 and 4 minutes), while the radiolabeled peptides eluted much later (between 8 and 20 minutes). In general, two isomeric radiometal complexes were observed, and the HPLC RCP was measured as the sum of the percent areas of the peaks corresponding to the two complexes. Radiochemical purity results for each of compounds are summarized in the examples that follow.
To ^99mTc radiolabelled peptide preparations described in Example 3 was added 150 μg of cysteine (approximately a 7-fold molar excess over peptide), and the preparations were stored at room temperature and monitored by HPLC for up to 12 hours. The amount of ^99mTc cysteine formed over time was noted. The initial HPLC analysis was started within 5 minutes of adding cysteine. In all cysteine challenge studies, a chelator compound containing a stabilizing sidechain was screened vs. the corresponding control chelator compound containing no sidechain. The relative amount of ^99mTc cysteine formed over time correlates inversely with the stability of the chelator (ie. less ^99mTc cysteine indicates higher chelator stability).
Several model chelator peptides were prepared with an N^1—N^2-Cys (N^1, N^2=independently any amino acid) amino acid sequence capable of complexing technetium as a triamide thiol chelator. Various stabilizing sidechains were substituted into the N^1—N^2-Cys chelator in two positions R1 and R2 as depicted in FIG. 4. The compounds were screened in the cysteine challenge experiment described in Example 4. Several experiments were conducted where 1-2 chelators were compared directly to a control chelator containing no stabilizing sidechain (compound GoC1 was also analyzed alone in a further study). Results in Table 5 represent % Peptide complexed to ^99mTc (ie. 100%−the amount of ^99mTc cysteine) vs. time.
Several model chelator peptides were prepared with an (β)Dap-N^2-Cys (N^2=any amino acid) amino acid sequence capable of complexing technetium as an amine diamide thiol chelator. This chelator is the chelator in the somatostatin peptides that were evaluated in Examples 5 and 6. Various stabilizing sidechains were substituted into the (β)Dap-N^2-Cys chelator in two positions R3 and R4 as depicted in FIG. 5. The compounds were screened in the cysteine challenge experiment described in Example 4. Several experiments were conducted where 1-2 chelators were compared directly to a control chelator containing no stabilizing sidechain. Results in Table 6 are the same as described in Example 7.
Two model chelator peptides were prepared with a ma-N^1—N^2 (Ma=mercaptoacetyl; N^1, N^2=independently any amino acid) amino acid sequence capable of complexing technetium as a triamide thiol chelator. This chelator has the thiol donor group at the N-terminus of the peptide. A stabilizing sidechain was substituted into the ma-N^1—N^2 chelator in position R5 as depicted in FIG. 6. The compounds were radiolabeled according to Example 3 with the exception that additional NaOH was added to bring the pH of the preparation up to pH 8.5. […]

[1] = (β)Dap-N2-Cys amine diamide thiol chelators, cysteine challenge
[2] = (β)Dap-N2-Cys amine diamide thiol chelators, cysteine challenge, Initial
[3] = N1-N2-Cys triamide thiol chelators, 150 μg cysteine, room temperature, Initial (within 5 minutes)
[4] = N1-N2-Cys triamide thiol chelators, cysteine challenge
[5] = (β)Dap-N2-Cys amine diamide thiol chelators, cysteine challenge, listed as Dap.GC
[6] = Ma-N1-N2 triamide thiol chelators, preparation pH 8.5, cysteine challenge
[7] = Ma-N1-N2 triamide thiol chelators, preparation pH 8.5, cysteine challenge, Initial

| Substance | % Peptide Complexed to ^99mTc Initial [3] | % Peptide Complexed to ^99mTc 2 h [4] | % Peptide Complexed to ^99mTc 4 h [4] | % Peptide Complexed to ^99mTc 6 h [4] | % Peptide Complexed to ^99mTc 8 h [4] | % Peptide Complexed to ^99mTc 10 h [4] | % Peptide Complexed to ^99mTc 12 h [4] | further results |
| --- | --- | --- | --- | --- | --- | --- | --- | --- |
| Ac-Tyr-Gly-(β)Dap(COCH2CH2NH2)-Gly-Cys-Ala.amide [Dap-Y.GC] | – | – | – | – | – | – | – | % Peptide Complexed to ^99mTc 2 h [1]: 84.6%; % Peptide Complexed to ^99mTc 4 h [1]: 84.1%; % Peptide Complexed to ^99mTc 6 h [1]: 82.9%; % Peptide Complexed to ^99mTc 8 h [1]: 80.7%; % Peptide Complexed to ^99mTc 10 h [1]: 80.0%; % Peptide Complexed to ^99mTc 12 h [1]: 77.2%; % Peptide Complexed to ^99mTc Initial [2]: 93.7% |
| Ac-Tyr-Gly-(β)Dap-Gly-Cys-Ala.amide [Dap.GC2] | – | – | – | – | – | – | – | % Peptide Complexed to ^99mTc 2 h [1]: 67.7%; % Peptide Complexed to ^99mTc 4 h [1]: 55.1%; % Peptide Complexed to ^99mTc 6 h [1]: 49.6%; % Peptide Complexed to ^99mTc 8 h [1]: 44.7%; % Peptide Complexed to ^99mTc 10 h [1]: 38.0%; % Peptide Complexed to ^99mTc 12 h [1]: 38.7%; % Peptide Complexed to ^99mTc Initial [2]: 83.4% |
| Ac-Tyr-Gly-Gln-Gly-Cys-Ala.amide (Ac-YGQGCA-NH2) | 92.9% and 96.3% | 88.7% and 88.3% | 88.8% and 86.1% | 86.6% and 84.0% | 85.6% and 82.0% | 83.8% and 77.6% | 84.2% and 75.9% | – |
| Ac-Tyr-Gly-Glu-Gly-Cys-Ala.amide (Ac-YGEGCA-NH2) | 91.4% | 84.1% | 78.1% | 73.3% | 67.4% | 60.1% | – | – |
| Ac-Tyr-Gly-Gly-(D)Orn-Cys-Ala.amide [GoC2] | 94.3% | 91.1% | 89.1% | 89.2% | 89.0% | 87.2% | 86.9% | – |
| Ac-Tyr-Gly-Gly-Gly-Cys-Ala.amide (Ac-YGGGCA-NH2) [GGC2, control chelator, no stabilizing sidechain] | 90.1% and 92.0% and 95.7% and 93.6% | 70.7% and 80.7% and 79.3% and 81.0% and 77.8% | 61.8% and 72.0% and 70.5% and 73.3% and 67.5% | 57.1% and 65.7% and 65.6% and 61.0% and 60.4% | 46.2% and 61.0% and 57.8% and 53.0% and 54.7% | 39.1% and 59.0% and 55.1% and 48.0% and 50.2% | 33.3% and 57.2% and 44.5% and 41.2% and 46.6% | – |
| Ac-Tyr-Gly-Gly-His-Cys-Ala.amide (Ac-YGGHCA-NH2) | 78.8% | 74.3% | 72.9% | 70.9% | 68.8% | 69.2% | 67.9% | – |
| Ac-Tyr-Gly-Gly-Orn-Cys-Ala.amide [GOC] | 98.2% | 93.8% | 90.0% | 86.1% | 80.0% | 78.1% | 88.6% | – |
| Ac-Tyr-Gly-Met-Gly-Cys-Ala.amide (Ac-YGMGCA-NH2) | 93.9% | 92.4% | 89.3% | 85.9% | 82.0% | 79.9% | 77.2% | – |
| Bz-Gly-(β)Dap-Gly-Cys-Ala.amide [Dap.GC1] | – | – | – | – | – | – | – | % Peptide Complexed to ^99mTc 2 h [1]: 78.1%; % Peptide Complexed to ^99mTc 2 h [5]: 78.9%; % Peptide Complexed to ^99mTc 4 h [1]: 62.7%; % Peptide Complexed to ^99mTc 4 h [5]: 42.6%; % Peptide Complexed to ^99mTc 6 h [1]: 57.8%; % Peptide Complexed to ^99mTc 6 h [5]: 51.6%; % Peptide Complexed to ^99mTc 8 h [1]: 51.9%; % Peptide Complexed to ^99mTc 8 h [5]: 46.3%; % Peptide Complexed to ^99mTc 10 h [1]: 46.2%; % Peptide Complexed to ^99mTc 12 h [1]: 43.3%; % Peptide Complexed to ^99mTc 12 h [5]: 37.6%; % Peptide Complexed to ^99mTc Initial [2]: 81.7% |
| Bz-Gly-(β)Dap-Met-Cys-Ala.amide [Dap.MC] | – | – | – | – | – | – | – | % Peptide Complexed to ^99mTc 2 h [1]: 95.4%; % Peptide Complexed to ^99mTc 4 h [1]: 89.8%; % Peptide Complexed to ^99mTc 6 h [1]: 92.6%; % Peptide Complexed to ^99mTc 8 h [1]: 91.6%; % Peptide Complexed to ^99mTc 10 h [1]: 88.4%; % Peptide Complexed to ^99mTc 12 h [1]: 89.7%; % Peptide Complexed to ^99mTc Initial [2]: 97.4% |
| Bz-Gly-Gly-Gln-Cys-Ala.amide (Bz-GGQCA-NH2; SMILES C[C@H](NC(=O)[C@H](CS)NC(=O)[C@H](CCC(N)=O)NC(=O)CNC(=O)CNC(=O)c1ccccc1)C(N)=O) | 97.8% | 93.2% | 88.7% | 82.4% | 80.1% | 78.7% | 73.5% | – |
| Bz-Gly-Gly-Met-Cys-Ala.amide (Bz-GGMCA-NH2; SMILES CSCC[C@H](NC(=O)CNC(=O)CNC(=O)c1ccccc1)C(=O)N[C@@H](CS)C(=O)N[C@@H](C)C(N)=O) | 96.9% | 92.6% | 88.6% | 83.7% | 82.7% | 78.6% | 77.2% | – |
| Ma-(D)Orn-Gly-Tyr-Ala.amide [Ma.oC] | – | – | – | – | – | – | – | % Peptide Complexed to ^99mTc 2 h [6]: 87.4%; % Peptide Complexed to ^99mTc 4 h [6]: 87.2%; % Peptide Complexed to ^99mTc 6 h [6]: 84.9%; % Peptide Complexed to ^99mTc 8 h [6]: 85.9%; % Peptide Complexed to ^99mTc 10 h [6]: 84.1%; % Peptide Complexed to ^99mTc 12 h [6]: 82.7%; % Peptide Complexed to ^99mTc Initial [7]: 100% |
| Ma-Gly-Gly-Tyr-Ala.amide (Mercaptoacetyl-GGYA-NH2; SMILES C[C@H](NC(=O)[C@H](Cc1ccc(O)cc1)NC(=O)CNC(=O)CNC(=O)CS)C(N)=O) [Ma.GG, control chelator, no stabilizing sidechain] | – | – | – | – | – | – | – | % Peptide Complexed to ^99mTc 2 h [6]: 91.3%; % Peptide Complexed to ^99mTc 4 h [6]: 75.7%; % Peptide Complexed to ^99mTc 6 h [6]: 61.2%; % Peptide Complexed to ^99mTc 8 h [6]: 48.7%; % Peptide Complexed to ^99mTc 10 h [6]: 42.2%; % Peptide Complexed to ^99mTc 12 h [6]: 32.7%; % Peptide Complexed to ^99mTc Initial [7]: 100% |
